Experimental data as given in the RNAGym collection of RNA variant scans (doi:10.7554/elife.80360).

B1: Hairpin Ribozyme (parent)
chain: GUCCUCUUUCACGUGCGCGUGAAAGAGAGAAGUGAACCAGAGAAACACACGUUGUGGUAUAUUACCUGGUA

Variants of: B1
Test: self-cleavage, relative activity (ratio to wild type); higher = more cleavage; co-transcriptional
C4U A31U showed a self-cleavage of 0.104.
A28U C50G showed a self-cleavage of 0.173.
For G56U C66A, the self-cleavage was 0.208.
In the case of C16G A26G, the self-cleavage is reported as 0.766.
In the case of C12U U58G, the self-cleavage is reported as 0.584.
For G19A A23U, the self-cleavage was 0.711.
C3U G17A gave a self-cleavage of 0.682.
Work on U20A U52A yielded a self-cleavage of 0.844.
With U20A U52C the self-cleavage was 0.96.
With G15A U67G the self-cleavage was 0.234.
C18A A59C showed a self-cleavage of 0.159.
In the case of G13A U70A, the self-cleavage is reported as 0.735.
For A45G U70A, the self-cleavage was 0.184.
In the case of U2G G34A, the self-cleavage is reported as 0.37.
For G13C A49U, the self-cleavage was 0.199.
With C12U U14G the self-cleavage was 0.602.
With C12U U14A the self-cleavage was 0.73.
For G13C G17C, the self-cleavage was 0.368.
Variant G1A G68C has a self-cleavage of 0.181.
Work on G17A G25U yielded a self-cleavage of 0.494.
C12U G29U showed a self-cleavage of 0.0791.
Work on A64U U67C yielded a self-cleavage of 0.213.
Variant G15C G27C has a self-cleavage of 0.204.
C10G G29A showed a self-cleavage of 0.0932.
Variant G17A U33G has a self-cleavage of 0.0712.
For G13A A64G, the self-cleavage was 0.526.
With G13U A45C the self-cleavage was 0.141.
A11U G17U showed a self-cleavage of 0.562.
Variant A49U U62A has a self-cleavage of 0.186.
C4A C38A showed a self-cleavage of 0.104.
Variant U20A G27A has a self-cleavage of 0.385.
Work on G17C G40A yielded a self-cleavage of 0.253.
A61G G69U showed a self-cleavage of 0.128.
With G51C U63A the self-cleavage was 0.199.
In the case of G51C U63G, the self-cleavage is reported as 0.0973.
C4G A24U showed a self-cleavage of 0.183.
Work on A11C G29C yielded a self-cleavage of 0.137.
Work on C10A G15U yielded a self-cleavage of 0.871.
U2G G13C showed a self-cleavage of 0.29.
U9C A71U showed a self-cleavage of 0.68.
U67A A71G showed a self-cleavage of 0.196.
G1U U14A showed a self-cleavage of 0.041.
For G17A A30C, the self-cleavage was 0.231.
Work on A30U A35U yielded a self-cleavage of 0.196.
For U5G A43G, the self-cleavage was 0.
A49U G56A gave a self-cleavage of 0.136.
C10G A24C gave a self-cleavage of 0.641.
C10G U67C showed a self-cleavage of 0.172.
A61C A71U showed a self-cleavage of 0.164.
In the case of G42A G56U, the self-cleavage is reported as 0.13.
Variant C38G G51C has a self-cleavage of 0.147.
Work on A26C C48U yielded a self-cleavage of 0.173.
In the case of A26U A49G, the self-cleavage is reported as 0.41.
Work on A41U C48A yielded a self-cleavage of 0.31.
For G21U A71C, the self-cleavage was 1.2.
Work on A23U G54U yielded a self-cleavage of 0.538.
G27C G42C gave a self-cleavage of 0.165.
Variant A28U G32A has a self-cleavage of 0.234.
For G57A G69C, the self-cleavage was 0.141.
G40A U55C showed a self-cleavage of 0.144.
Work on A47C G69C yielded a self-cleavage of 0.196.
Variant U63C A64G has a self-cleavage of 0.0805.
Variant A28G G54A has a self-cleavage of 0.646.
With A11G A45U the self-cleavage was 0.159.
A30U C50U gave a self-cleavage of 0.0896.
For G69C U70A, the self-cleavage was 0.437.
G32C G42U showed a self-cleavage of 0.213.
U9A U14G showed a self-cleavage of 0.74.
Work on G68A A71C yielded a self-cleavage of 0.348.
G57A U58C showed a self-cleavage of 0.21.
G57A U58A showed a self-cleavage of 0.169.
C12G A26U showed a self-cleavage of 0.696.
For C18A G34C, the self-cleavage was 1.56.
A23G A28C gave a self-cleavage of 0.641.
G13A U55G gave a self-cleavage of 0.112.
G19A A45C showed a self-cleavage of 0.108.
G15A A47G showed a self-cleavage of 0.124.
In the case of G51U U55C, the self-cleavage is reported as 0.245.
Work on G21A A22C yielded a self-cleavage of 0.581.
For A47C U55G, the self-cleavage was 0.136.
For A22U A36U, the self-cleavage was 0.58.
Variant U58A A64U has a self-cleavage of 0.237.
In the case of U7C A11G, the self-cleavage is reported as 0.684.
Variant A26U U33C has a self-cleavage of 0.141.
Variant U8A U60C has a self-cleavage of 0.89.
U9G A49U showed a self-cleavage of 0.163.
For A59C A61G, the self-cleavage was 0.207.
Variant A36C G42C has a self-cleavage of 0.245.
U52A A64U showed a self-cleavage of 0.177.
Work on A41U A61U yielded a self-cleavage of 0.399.
For A43U C48U, the self-cleavage was 0.162.
In the case of A26U A59G, the self-cleavage is reported as 0.181.
Work on C10G G51U yielded a self-cleavage of 0.699.
U53G U63C showed a self-cleavage of 0.241.
For G17C A26U, the self-cleavage was 0.414.
For G17C A26G, the self-cleavage was 0.709.
Work on U9A G68A yielded a self-cleavage of 0.223.
Variant U5A A64G has a self-cleavage of 0.154.
Work on U52G G69A yielded a self-cleavage of 0.263.
Work on C48A U62C yielded a self-cleavage of 0.207.
With C4A A41U the self-cleavage was 0.504.
A22G G56C gave a self-cleavage of 0.137.
For A22C U52A, the self-cleavage was 0.821.
Variant C16A G69A has a self-cleavage of 0.308.
For G1A C48G, the self-cleavage was 0.201.
In the case of G25A U33A, the self-cleavage is reported as 0.235.
For G29C G34U, the self-cleavage was 0.0954.
Variant A44U U58A has a self-cleavage of 0.0794.
In the case of A44U U58C, the self-cleavage is reported as 0.177.
G21U U33A showed a self-cleavage of 0.242.
With G1A G32U the self-cleavage was 0.184.
Work on A11G C48G yielded a self-cleavage of 0.109.
G56C A59U gave a self-cleavage of 0.173.
G25U G42U showed a self-cleavage of 0.183.
Work on A35U U58G yielded a self-cleavage of 0.553.
Work on A43U A49G yielded a self-cleavage of 0.151.
U53G gave a self-cleavage of 0.86.
For C16A A45U, the self-cleavage was 0.176.
Variant A24G A26G has a self-cleavage of 0.569.
U9C A22G gave a self-cleavage of 1.04.
In the case of A35C A61C, the self-cleavage is reported as 0.151.
In the case of C37A G68A, the self-cleavage is reported as 0.302.
For A36C C65G, the self-cleavage was 0.3.
Work on G15U U58C yielded a self-cleavage of 0.889.
With A41G C46U the self-cleavage was 0.0954.
In the case of A26G U58A, the self-cleavage is reported as 0.755.
Work on A23C U70G yielded a self-cleavage of 0.685.
Variant U9G U33C has a self-cleavage of 0.176.
With A39U A64U the self-cleavage was 0.16.
G54C U58G showed a self-cleavage of 0.272.
For C4A G13U, the self-cleavage was 0.248.
For G13U U60A, the self-cleavage was 0.696.
With U2G C66U the self-cleavage was 0.163.
U14G C38A showed a self-cleavage of 0.17.
G15U A41G showed a self-cleavage of 0.943.
C46G A59C gave a self-cleavage of 0.219.
Work on A24G A41C yielded a self-cleavage of 0.743.
For G1U U8G, the self-cleavage was 0.0482.
For G29U U63A, the self-cleavage was 0.146.
With C16G A24U the self-cleavage was 0.69.
G21C A49U showed a self-cleavage of 0.293.
Work on G15U A39U yielded a self-cleavage of 0.544.
U8G A43U gave a self-cleavage of 0.228.
With C3U U67G the self-cleavage was 0.164.
A45U U52G showed a self-cleavage of 0.122.
Work on U5A C66A yielded a self-cleavage of 0.247.
G25C showed a self-cleavage of 0.563.
A22U G27C showed a self-cleavage of 0.178.
With A35C U53C the self-cleavage was 0.835.
With A41C U62C the self-cleavage was 0.329.
For U53A G56U, the self-cleavage was 0.105.
Variant G32C G40C has a self-cleavage of 0.109.
In the case of C16A C18A, the self-cleavage is reported as 1.14.
For C3A U52A, the self-cleavage was 0.7.
Work on G1C U63G yielded a self-cleavage of 0.0496.
Variant U7G G29A has a self-cleavage of 0.22.
Work on U14C G42C yielded a self-cleavage of 0.403.
In the case of G15U G54C, the self-cleavage is reported as 0.385.
Work on A26C A43C yielded a self-cleavage of 0.159.
With A28U A43G the self-cleavage was 0.0987.
A11C U60C gave a self-cleavage of 1.27.
Variant A30G U63G has a self-cleavage of 0.101.
Work on G15C C37U yielded a self-cleavage of 0.592.
For U33G C50U, the self-cleavage was 0.14.
With G15C G51A the self-cleavage was 0.796.
A43C U55C gave a self-cleavage of 0.201.
G25U C66U showed a self-cleavage of 0.315.
